Data as given in the supplement of paper PMC10567573.

B1: TCEB3B (parent)
chain: STTALGDKQRKANESKGTRESWDS

Variants of: B1
Assay: protein stability index of a GFP-peptide fusion (GPS, HEK-293T) (PSI 1-6); higher = more stable
Conditions: c terminus: a fixed tail appended
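Also: lentivirally expressed fusions sorted by FACS into six bins by GFP to DsRed ratio, PSI derived from sequencing read proportions per bin multiplied by bin number.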

Point of comparison: STTALGDKERKANESKGTRESWDS, protein stability index 3.71. Against it:
- STTALMDKQRKANESKGTRESWDS — higher, 3.93
- STTALNDKQRKANESKGTRESWDS — higher, 4.38
- STTALPDKQRKANESKGTRESWDS — higher, 4.34
- STTALQDKQRKANESKGTRESWDS — higher, 3.83
- STTALRDKQRKANESKGTRESWDS — higher, 4.07
- STTALSDKQRKANESKGTRESWDS — higher, 3.85
- STTALTDKQRKANESKGTRESWDS — higher, 3.81
- STTALVDKQRKANESKGTRESWDS — lower, 2.98
- STTALWDKQRKANESKGTRESWDS — lower, 3.29
- STTALYDKQRKANESKGTRESWDS — lower, 3.68
- STTALGAKQRKANESKGTRESWDS — lower, 3.49
- STTALGCKQRKANESKGTRESWDS — lower, 3.57
- STTALGEKQRKANESKGTRESWDS — higher, 4.36
- STTALGFKQRKANESKGTRESWDS — lower, 3.24
- STTALGGKQRKANESKGTRESWDS — higher, 3.83
- STTALGHKQRKANESKGTRESWDS — lower, 3.58
- STTALGIKQRKANESKGTRESWDS — lower, 3.23
- STTALGKKQRKANESKGTRESWDS — higher, 4.05
- STTALGLKQRKANESKGTRESWDS — lower, 2.88
- STTALGMKQRKANESKGTRESWDS — lower, 3.2
- STTALGNKQRKANESKGTRESWDS — lower, 3.43
- STTALGPKQRKANESKGTRESWDS — lower, 3.5
- STTALGQKQRKANESKGTRESWDS — lower, 3.15
- STTALGRKQRKANESKGTRESWDS — higher, 3.88
- STTALGSKQRKANESKGTRESWDS — lower, 3.43
- STTALGTKQRKANESKGTRESWDS — lower, 3.52
- STTALGVKQRKANESKGTRESWDS — lower, 3.6
- STTALGWKQRKANESKGTRESWDS — lower, 3.39
- STTALGYKQRKANESKGTRESWDS — lower, 3
- STTALGDAQRKANESKGTRESWDS — higher, 3.83
- STTALGDCQRKANESKGTRESWDS — higher, 4.12
- STTALGDDQRKANESKGTRESWDS — higher, 4.59
- STTALGDEQRKANESKGTRESWDS — higher, 4.1
- STTALGDFQRKANESKGTRESWDS — higher, 3.88
- STTALGDGQRKANESKGTRESWDS — higher, 4.29
- STTALGDHQRKANESKGTRESWDS — higher, 3.86
- STTALGDIQRKANESKGTRESWDS — higher, 3.98
- STTALGDLQRKANESKGTRESWDS — higher, 4.8
- STTALGDMQRKANESKGTRESWDS — higher, 4.12
- STTALGDNQRKANESKGTRESWDS — higher, 4.15
- STTALGDPQRKANESKGTRESWDS — higher, 3.96
- STTALGDQQRKANESKGTRESWDS — higher, 4.16
- STTALGDRQRKANESKGTRESWDS — higher, 4.08
- STTALGDSQRKANESKGTRESWDS — higher, 4.31
- STTALGDTQRKANESKGTRESWDS — lower, 3.46
- STTALGDVQRKANESKGTRESWDS — higher, 4.17
- STTALGDWQRKANESKGTRESWDS — higher, 4.51
- STTALGDYQRKANESKGTRESWDS — lower, 3.11
- STTALGDKARKANESKGTRESWDS — lower, 3.38
- STTALGDKCRKANESKGTRESWDS — lower, 3.37
- STTALGDKDRKANESKGTRESWDS — higher, 3.92
- STTALGDKFRKANESKGTRESWDS — lower, 3.29
- STTALGDKGRKANESKGTRESWDS — lower, 3.62
- STTALGDKHRKANESKGTRESWDS — higher, 4.26
- STTALGDKIRKANESKGTRESWDS — higher, 3.72
- STTALGDKKRKANESKGTRESWDS — higher, 4.09
- STTALGDKLRKANESKGTRESWDS — lower, 3.67
- STTALGDKMRKANESKGTRESWDS — higher, 4.08
- STTALGDKNRKANESKGTRESWDS — lower, 3.47
- STTALGDKPRKANESKGTRESWDS — lower, 3.53
- STTALGDKRRKANESKGTRESWDS — lower, 3.52
- STTALGDKSRKANESKGTRESWDS — the same, 3.71
- STTALGDKTRKANESKGTRESWDS — higher, 4.14
- STTALGDKVRKANESKGTRESWDS — higher, 3.85
- STTALGDKWRKANESKGTRESWDS — lower, 2.45
- STTALGDKYRKANESKGTRESWDS — lower, 3.64
- STTALGDKQAKANESKGTRESWDS — higher, 4.13
- STTALGDKQCKANESKGTRESWDS — lower, 3.53
- STTALGDKQDKANESKGTRESWDS — higher, 4.76
- STTALGDKQEKANESKGTRESWDS — higher, 4.57
- STTALGDKQFKANESKGTRESWDS — higher, 4.15
- STTALGDKQGKANESKGTRESWDS — higher, 4.55
- STTALGDKQHKANESKGTRESWDS — higher, 4.24
- STTALGDKQIKANESKGTRESWDS — lower, 3.6
- STTALGDKQKKANESKGTRESWDS — higher, 4.25
- STTALGDKQLKANESKGTRESWDS — higher, 4.28
- STTALGDKQMKANESKGTRESWDS — higher, 4.03
- STTALGDKQNKANESKGTRESWDS — higher, 4.14
- STTALGDKQPKANESKGTRESWDS — higher, 4.43
- STTALGDKQQKANESKGTRESWDS — higher, 4.56
- STTALGDKQSKANESKGTRESWDS — higher, 4.26
- STTALGDKQTKANESKGTRESWDS — higher, 4.33
- STTALGDKQVKANESKGTRESWDS — lower, 3.54
- STTALGDKQWKANESKGTRESWDS — lower, 3.46
- STTALGDKQYKANESKGTRESWDS — higher, 4.26
- STTALGDKQRAANESKGTRESWDS — higher, 4.3
- STTALGDKQRCANESKGTRESWDS — higher, 4.53
- STTALGDKQRDANESKGTRESWDS — higher, 4.32
- STTALGDKQREANESKGTRESWDS — higher, 4.72
- STTALGDKQRFANESKGTRESWDS — higher, 3.79
- STTALGDKQRGANESKGTRESWDS — higher, 3.88
- STTALGDKQRHANESKGTRESWDS — higher, 4.29
- STTALGDKQRIANESKGTRESWDS — higher, 4.02
